From article PMC6905151, “Mapping of the binding site for FcμR in human IgM-Fc” (Biochimica et Biophysica Acta. Proteins and Proteomics, 2020)

Molecular target: T1, soluble extracellular immunoglobulin-like domain of FcμR (human)
T1 construct: FcμR (FAIM3, TOSO), human; 390-aa polypeptide with a 17-aa signal peptide and a 107-aa Ig-like domain; The receptor clone came from Prof; H. Kubagawa; also called sIgFcμR; not shown: His tag (from the nickel column chromatography)
T1 sequence (O60667 whole entry, looked up): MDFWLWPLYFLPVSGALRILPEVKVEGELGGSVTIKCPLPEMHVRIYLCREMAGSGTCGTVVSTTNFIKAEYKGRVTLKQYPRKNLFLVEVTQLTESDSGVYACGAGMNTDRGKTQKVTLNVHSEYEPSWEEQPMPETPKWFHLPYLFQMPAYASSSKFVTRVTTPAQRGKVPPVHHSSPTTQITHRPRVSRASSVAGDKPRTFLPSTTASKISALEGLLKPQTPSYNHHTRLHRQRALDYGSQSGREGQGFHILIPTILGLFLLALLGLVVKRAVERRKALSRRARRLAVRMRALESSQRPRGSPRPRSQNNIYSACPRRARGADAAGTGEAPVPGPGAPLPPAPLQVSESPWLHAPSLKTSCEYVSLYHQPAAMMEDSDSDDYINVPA
Experiment: SPR; Biacore T200, 25 °C, 0.01 M HEPES, 0.15 M NaCl, 0.005% Surfactant P20, pH 7.4; IgM, IgM-Fc, Fcμ3-4 or IgM-Fc mutants immobilised on CM5 by amine coupling; analyte sIgFcμR 0.25 μM to 12 μM; steady state, 1:1 binding model
Conditions: both partners purified

Kd: 1.09 µM
B1: Fcμ3-4, dimer of Cμ3-Cμ4 domains (domain or fragment)
chain: DQDTAIRVFAIPPSFASIFLTKSTKLTCLVTDLTTYDSVTISWTRQNGEAVKTHTNISESHPNATFSAVGEASISEDDWNSGERFTCTVTHTDLPSPLKQTISRPKGVALHRPDVYLLPPAREQLNLRESATITCLVTGFSPADVFVQWMQRGQPLSPEKYVTSAPMPEPQAPGRYFAHSILTVSEEEWNTGETYTCVVAHEALPNRVTERTVDKSTGK
